Data: patent US20090281028A1
Where two headings read alike, the source gives them in different places. Ends that are not written are not given here.

Legend:
Test in all cases: cell-based or functional assay
[1] = target: human Kv1.3 voltage-gated potassium channel (human) (UniProt P22001)
[2] = target: human Kv1.3 channel (human) (UniProt P22001)
[3] = target: human Kv1.1 channel (human) (UniProt Q09470)
[4] = target: human Kv1.1 voltage-gated potassium channel (human) (UniProt Q09470)
[5] = target: human Kv1.3 channel (human) (UniProt P22001); remark: listed apart in the source

Chain of human Kv1.3 channel (human) (P22001 whole entry): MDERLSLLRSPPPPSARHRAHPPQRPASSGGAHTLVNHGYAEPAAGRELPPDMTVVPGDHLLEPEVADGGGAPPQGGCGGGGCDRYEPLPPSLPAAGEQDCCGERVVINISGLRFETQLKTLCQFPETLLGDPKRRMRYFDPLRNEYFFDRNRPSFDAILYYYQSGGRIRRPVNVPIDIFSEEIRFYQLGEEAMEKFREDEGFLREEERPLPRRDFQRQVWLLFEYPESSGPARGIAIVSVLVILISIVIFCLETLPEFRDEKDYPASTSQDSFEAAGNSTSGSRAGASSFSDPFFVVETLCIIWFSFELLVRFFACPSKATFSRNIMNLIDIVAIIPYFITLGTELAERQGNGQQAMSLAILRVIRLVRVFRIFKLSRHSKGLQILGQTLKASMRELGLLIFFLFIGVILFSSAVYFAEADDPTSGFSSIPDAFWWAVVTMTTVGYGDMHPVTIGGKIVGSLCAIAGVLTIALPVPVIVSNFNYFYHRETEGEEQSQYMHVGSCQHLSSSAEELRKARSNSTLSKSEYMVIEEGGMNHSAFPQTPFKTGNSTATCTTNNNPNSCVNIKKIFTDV
Chain of human Kv1.3 voltage-gated potassium channel (human) (P22001 whole entry): as above
Chain of human Kv1.1 channel (human) (Q09470 whole entry): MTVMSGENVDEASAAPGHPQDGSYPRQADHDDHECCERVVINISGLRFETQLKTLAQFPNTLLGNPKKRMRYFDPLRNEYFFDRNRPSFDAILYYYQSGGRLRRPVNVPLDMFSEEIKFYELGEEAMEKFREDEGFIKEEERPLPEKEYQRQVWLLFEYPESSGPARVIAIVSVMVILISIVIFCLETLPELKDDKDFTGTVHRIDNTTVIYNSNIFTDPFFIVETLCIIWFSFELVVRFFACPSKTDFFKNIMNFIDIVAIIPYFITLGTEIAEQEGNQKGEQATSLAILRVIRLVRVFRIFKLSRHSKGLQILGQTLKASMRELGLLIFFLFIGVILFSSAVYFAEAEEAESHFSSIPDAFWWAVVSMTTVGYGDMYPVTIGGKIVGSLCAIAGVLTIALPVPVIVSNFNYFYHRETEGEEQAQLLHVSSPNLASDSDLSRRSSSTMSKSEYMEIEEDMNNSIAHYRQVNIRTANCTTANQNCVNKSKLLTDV
Chain of human Kv1.1 voltage-gated potassium channel (human) (Q09470 whole entry): as above

20k PEG-OSK1[Ala29, 1Nal34] (peptide) was tested, and the WB/IFNg (IC50, nM); human whole blood [1] was 0.081 nM and the WB/IL-2 (IC50, nM); human whole blood [1] was 0.049 nM.

20k PEG-ShK (peptide) was tested, and the WB/IFNg (IC50, nM); human whole blood [1] was 0.065 nM and the WB/IL-2 (IC50, nM); human whole blood [1] was 0.046 nM.

E. coli-derived Fc-L-OSK1 (Fc fusion) was tested, and the Kv1.3 IC50 by WCVC (nM), whole cell patch clamp, HEK293/Kv1.3 cells [2] was 3.2 nM.

In the case of “E. coli-derived Fc-L-ShK[1-35] (Fc fusion)”, the Kv1.3 IC50 by WCVC (nM), whole cell patch clamp, HEK293/Kv1.3 cells [2] is reported as 1.4 nM.

“E. coli-derived Fc-L-ShK[2-35] (Fc fusion)” was tested, and the Kv1.3 IC50 by IWQ (nM), IonWorks planar patch clamp, CHO/Kv1.3 cells [2] was 2.8 nM and the Kv1.3 IC50 by WCVC (nM), whole cell patch clamp, HEK293/Kv1.3 cells [2] was 1.3 nM.

“E. coli-derived ShK[2-35]-L-Fc (Fc fusion)” gave a Kv1.3 IC50 by IWQ (nM), IonWorks planar patch clamp, CHO/Kv1.3 cells [2] of 4.9 nM.

“E. coli-derived Shk[1-35]-L-Fc (Fc fusion)” showed a Kv1.3 IC50 by IWQ (nM), IonWorks planar patch clamp, CHO/Kv1.3 cells [2] of 2.4 nM.

For “Fc-L5-ShK[2-35] (CHO-derived, bivalent dimeric) (Fc fusion)”, the IC50 of block of the outward potassium current, whole cell patch clamp [2] was 0.1 nM.

Fc-L10-OSK1 (Fc fusion) showed a hKv1.1: IC50 [pM], block of current, whole cell patch clamp [3] of 41600 pM.

Work on “Fc-L10-OSK1 (stably expressed in CHO cells) (Fc fusion)” yielded a fold loss of potency (IC50 of Kv1.3 current block) against synthetic OSK1 [2] of 5 fold.

Molecule “Fc-L10-ShK[2-35] (CHO-derived, bivalent dimeric) (Fc fusion)” has an IC50 of block of the outward potassium current, whole cell patch clamp [2] of 0.115 nM.

“Fc-L25-ShK[2-35] (CHO-derived, bivalent dimeric) (Fc fusion)” was tested, and the IC50 of inhibition of human Kv1.3, whole cell patch clamp [2] was 0.15 nM.

For GGGGS-Osk1 (peptide), the WB/IFNg (IC50, nM); human whole blood [1] was 2.2 nM and the WB/IL-2 (IC50, nM); human whole blood [1] was 1.36 nM.

Work on “OSK1 (wild-type), toxin peptide of Orthochirus scrobiculosus scorpion venom” yielded a Kv1.1 (IC50, pM); whole cell patch clamp ePhys [4] of 202 pM, a Kv1.3 (IC50, pM); whole cell patch clamp ePhys [1] of 39 pM and a Kv1.3 Selectivity (=Kv1.1/Kv.3 IC50) [1] of 5 fold.

Molecule OSK1-K16, D20 (peptide) has a WB/IFNg (IC50, nM); human whole blood [1] of 1.32 nM and a WB/IL-2 (IC50, nM); human whole blood [1] of 1.58 nM.

For “PEG-OSK1 (N-terminally 20 kDa PEGylated synthetic OSK1) (peptide)”, the peak IC50 of block of the outward potassium current, whole cell patch clamp [2] was 1.28 nM.

In the case of Synthetic OSK1 (peptide), the hKv1.3: IC50 [pM], block of current, whole cell patch clamp [2] is reported as 39 pM, the selectivity ratio hKv1.1/hKv1.3 (IC50) [2] is reported as 4 fold and the hKv1.1: IC50 [pM], block of current, whole cell patch clamp [3] is reported as 160 pM.

B1: 20K PEG-ShK[1-35] (peptide)
peptide: RSCIDTIPKSRCTAFQCKHSMKYRLSFCRKTCGTC
modifications: not fully specified; ends and bridges not checked
Molecule B1 has a peak IC50 of block of the outward potassium current, whole cell patch clamp [5] of 0.169 nM.

B2: synthetic ShK[2-35] (peptide)
peptide: SCIDTIPKSRCTAFQCKHSMKYRLSFCRKTCGTC
modifications: not fully specified; ends and bridges not checked
Work on B2 yielded an IC50 of block of the outward potassium current, whole cell patch clamp [5] of 0.049 nM.
